Columns and labels:
[1] = substrate: Nc1nc(/C(=N/O)C(=O)N[C@@H]2C(=O)N3C(C(=O)O)=C(/C=C4\CCN([C@@H]5CCNC5)C4=O)CS[C@H]23)ns1; assay: (§1) Ratio of Kcat to Km of Serratia marcescens AmpC assessed as drug hydrolysis by spectrophotometry
[2] = substrate: CO/N=C(\C(=O)N[C@@H]1C(=O)N2C(C(=O)[O-])=C(C[N+]3(C)CCCC3)CS[C@H]12)c1csc(N)n1; assay: as §1
[3] = substrate: O=C(Cc1cccs1)N[C@@H]1C(=O)N2C(C(=O)[O-])=C(C[n+]3ccccc3)CS[C@H]12; assay: as §1
[4] = substrate: CC1(C)S[C@@H]2[C@H](NC(=O)Cc3ccccc3)C(=O)N2[C@H]1C(=O)O; assay: as §1
[5] = substrate: O=C(Cc1cccs1)N[C@@H]1C(=O)N2C(C(=O)O)=C(/C=C/c3ccc([N+](=O)[O-])cc3[N+](=O)[O-])CS[C@H]12; assay: as §1
[6] = substrate: CC(C)(O/N=C(\C(=O)N[C@@H]1C(=O)N2C(C(=O)[O-])=C(C[n+]3ccccc3)CS[C@H]12)c1csc(N)n1)C(=O)O; assay: as §1
[7] = substrate: Nc1nc(/C(=N/O)C(=O)N[C@@H]2C(=O)N3C(C(=O)O)=C(/C=C4\CCN([C@@H]5CCNC5)C4=O)CS[C@H]23)ns1; assay: (§2) Activity of Serratia marcescens AmpC assessed as drug hydrolysis by spectrophotometry
[8] = substrate: CO/N=C(\C(=O)N[C@@H]1C(=O)N2C(C(=O)[O-])=C(C[N+]3(C)CCCC3)CS[C@H]12)c1csc(N)n1; assay: as §2
[9] = substrate: O=C(Cc1cccs1)N[C@@H]1C(=O)N2C(C(=O)[O-])=C(C[n+]3ccccc3)CS[C@H]12; assay: as §2
[10] = substrate: CC1(C)S[C@@H]2[C@H](NC(=O)Cc3ccccc3)C(=O)N2[C@H]1C(=O)O; assay: as §2
[11] = substrate: O=C(Cc1cccs1)N[C@@H]1C(=O)N2C(C(=O)O)=C(/C=C/c3ccc([N+](=O)[O-])cc3[N+](=O)[O-])CS[C@H]12; assay: as §2
[12] = substrate: CC(C)(O/N=C(\C(=O)N[C@@H]1C(=O)N2C(C(=O)[O-])=C(C[n+]3ccccc3)CS[C@H]12)c1csc(N)n1)C(=O)O; assay: as §2
[13] = substrate: Nc1nc(/C(=N/O)C(=O)N[C@@H]2C(=O)N3C(C(=O)O)=C(/C=C4\CCN([C@@H]5CCNC5)C4=O)CS[C@H]23)ns1; assay: (§3) Ratio of Kcat to Km of Pseudomonas aeruginosa IMP1 assessed as drug hydrolysis by spectrophotometry
[14] = substrate: CO/N=C(\C(=O)N[C@@H]1C(=O)N2C(C(=O)[O-])=C(C[N+]3(C)CCCC3)CS[C@H]12)c1csc(N)n1; assay: as §3
[15] = substrate: O=C(Cc1cccs1)N[C@@H]1C(=O)N2C(C(=O)[O-])=C(C[n+]3ccccc3)CS[C@H]12; assay: as §3
[16] = substrate: CC1(C)S[C@@H]2[C@H](NC(=O)Cc3ccccc3)C(=O)N2[C@H]1C(=O)O; assay: as §3
[17] = substrate: CC(C)(O/N=C(\C(=O)N[C@@H]1C(=O)N2C(C(=O)[O-])=C(C[n+]3ccccc3)CS[C@H]12)c1csc(N)n1)C(=O)O; assay: as §3
[18] = substrate: Nc1nc(/C(=N/O)C(=O)N[C@@H]2C(=O)N3C(C(=O)O)=C(/C=C4\CCN([C@@H]5CCNC5)C4=O)CS[C@H]23)ns1; assay: (§4) Ratio of Kcat to Km of Serratia marcescens SME3 assessed as drug hydrolysis by spectrophotometry
[19] = substrate: CO/N=C(\C(=O)N[C@@H]1C(=O)N2C(C(=O)[O-])=C(C[N+]3(C)CCCC3)CS[C@H]12)c1csc(N)n1; assay: as §4
[20] = substrate: O=C(Cc1cccs1)N[C@@H]1C(=O)N2C(C(=O)[O-])=C(C[n+]3ccccc3)CS[C@H]12; assay: as §4
[21] = substrate: CC1(C)S[C@@H]2[C@H](NC(=O)Cc3ccccc3)C(=O)N2[C@H]1C(=O)O; assay: as §4
[22] = substrate: CC(C)(O/N=C(\C(=O)N[C@@H]1C(=O)N2C(C(=O)[O-])=C(C[n+]3ccccc3)CS[C@H]12)c1csc(N)n1)C(=O)O; assay: as §4
[23] = substrate: Nc1nc(/C(=N/O)C(=O)N[C@@H]2C(=O)N3C(C(=O)O)=C(/C=C4\CCN([C@@H]5CCNC5)C4=O)CS[C@H]23)ns1; assay: (§5) Activity of Serratia marcescens SME3 assessed as drug hydrolysis by spectrophotometry
[24] = substrate: CO/N=C(\C(=O)N[C@@H]1C(=O)N2C(C(=O)[O-])=C(C[N+]3(C)CCCC3)CS[C@H]12)c1csc(N)n1; assay: as §5
[25] = substrate: O=C(Cc1cccs1)N[C@@H]1C(=O)N2C(C(=O)[O-])=C(C[n+]3ccccc3)CS[C@H]12; assay: as §5
[26] = substrate: CC1(C)S[C@@H]2[C@H](NC(=O)Cc3ccccc3)C(=O)N2[C@H]1C(=O)O; assay: as §5
[27] = substrate: CC(C)(O/N=C(\C(=O)N[C@@H]1C(=O)N2C(C(=O)[O-])=C(C[n+]3ccccc3)CS[C@H]12)c1csc(N)n1)C(=O)O; assay: as §5

B1: Beta-lactamase (Serratia marcescens), P18539 (protein)
chain: MTKMNRCAALIAALILPTAHAAQQQDIDAVIQPLMKKYGVPGMAIAVSVDGKQQIYPYGVASKQTGKPITEQTLFEVGSLSKTFTATLAVYAQQQSKLSFKDPASHYLPDVRGSAFDGVSLLNLATHTSGLPLFVPDDVTNNAQLMAYYRAWQPKHPAGSYRVYSNLGIGMLGMIAAKSLDQPFIQAMEQGMLPALGMSHTYVQVPAAQMANYAQGYSKDDKPVRVNPGPLDAESYGIKSNARDLIRYLDANLQQVKVASVARRWPRRTSVITSAGAFTQDLMWENYPYPVKLSRLIEGNNAGMIMNGTPATAITPPQPELRAGWYNKTGSTGGFSTYAVFIPAKNIAVEMLANKWFPNDDRVEAAYHIIQALEKR
- kcat/Km [1]: < 8400 M⁻¹ s⁻¹
- kcat/Km [2]: < 690 M⁻¹ s⁻¹
- kcat/Km [3]: 3.1e+06 M⁻¹ s⁻¹
- kcat/Km [4]: 9e+06 M⁻¹ s⁻¹
- kcat/Km [5]: 6e+07 M⁻¹ s⁻¹
- kcat/Km [6]: < 88 M⁻¹ s⁻¹
- Km [7]: 320 µM
- kcat [7]: < 2.7 s⁻¹
- Km [8]: > 800 µM
- kcat [8]: < 0.55 s⁻¹
- Km [9]: 680 µM
- kcat [9]: 2000 s⁻¹
- Km [10]: 2.1 µM
- kcat [10]: 19 s⁻¹
- Km [11]: 14 µM
- kcat [11]: 840 s⁻¹
- Km [12]: 570 µM
- kcat [12]: < 0.05 s⁻¹

B2: Metallo beta-lactamase (Pseudomonas aeruginosa), Q6TUJ4 (protein)
chain: YVHTSFEEVNGWGVVPKHGLVVLVNAEAYLIDTPFTAKDTEKLVTWFVERGYKIKGSISSHFHSDSTGGIEWLNSRSIPTYASELTNELLKKDGKVQATNSFSGVNYWLVKNKIEVFYPGPGHTPDNVVVWLP
- kcat/Km [13]: 740000 M⁻¹ s⁻¹
- kcat/Km [14]: 150000 M⁻¹ s⁻¹
- kcat/Km [15]: 75000 M⁻¹ s⁻¹
- kcat/Km [16]: 560000 M⁻¹ s⁻¹
- kcat/Km [17]: 90000 M⁻¹ s⁻¹

B3: Carbapenem-hydrolyzing beta-lactamase SME-3 (Serratia marcescens), Q6PRG8 (protein)
chain: MSNKVNFKTASFLFSVCLALSAFNAHANKSDAAAKQIKKLEEDFDGRIGVFAIDTGSGNTFGYRSDERFPLCSSFKGFLAAAVLERVQQKKLDINQKVKYESRDLEYYSPITTKYKGSGMTLGDMASAALQYSDNGATNIIMERFLGGPEGMTKFMRSIGDNEFRLDRWELELNTAIPGDKRDTSTPKAVANSLNKLALGNVLNAKVKAIYQNWLKGNTTGDARIRASVPADWVVGDKTGSCGAYGTANDYAVIWPKNRAPLIVSIYTTRKSKDDKHSDKTIAEASRIAIQAID
- kcat/Km [18]: 22000 M⁻¹ s⁻¹
- kcat/Km [19]: 5400 M⁻¹ s⁻¹
- kcat/Km [20]: 3e+06 M⁻¹ s⁻¹
- kcat/Km [21]: 4e+06 M⁻¹ s⁻¹
- kcat/Km [22]: 940 M⁻¹ s⁻¹
- Km [23]: 270 µM
- kcat [23]: 5.9 s⁻¹
- Km [24]: 280 µM
- kcat [24]: 1.5 s⁻¹
- Km [25]: 400 µM
- kcat [25]: 1200 s⁻¹
- Km [26]: 2.2 µM
- kcat [26]: 8.8 s⁻¹
- Km [27]: 170 µM
- kcat [27]: 0.16 s⁻¹

From ChEMBL document CHEMBL1143427, “Interactions of ceftobiprole with beta-lactamases from molecular classes A to D” (Antimicrob Agents Chemother, 2007)
